In IntAct's records for PubMed 19914239:

B1: Folliculin (Rattus norvegicus (Rat)), Q76JQ2 (parent)
chain: MNAIVALCHFCELHGPRTLFCTEVLHAPLPQGAGSGDSPGQVEQAEEEEGGIQMSSRVRAHSPAEGASTDSSSPGPKKSDMCEGCRSLAVGHPGYISHDKETSIKYVSHQHPNHPQLFSIVRQACVRSLSCEVCPGREGPIFFGDEQHGFVFSHTFFIKDSLARGFQRWYSIIAIMMDRIYLINSWPFLLGKIRGIISELQGKALKVFEAEQFGCPQRAQRMNTAFTPFLHQRNGNAARSLTSLTSDDNLWACLHTSFAWLLKACGSRLTEKLLEGAPTEDTLVQMEKLADLEEESESWDNSEAEEEEKAPATAEGAEGRELASCPTESSFLSACGSWQPPKLSVFKSLRHMRQVLGAPSFRMLAWHVLMGNQVIWKSRDVNLVHSAFEVLRTMLPVGCVRIIPYSSQYEEAYRCNFLGLSPPVPIPAHVLASEFVVVVEVHTATRSNPHPAGCEDDQSLSKYEFVVTSGSPVAADRVGPTILNKMEAALTNQNLSVDVVDQCLVCLKEEWMNKVKVLFKFTKVDSRPKEDTQKLLSVLGASEEDNVKLLKFWMTGLSKTYKSHLMSTVRSPTAAESRN

Variants of: B1
Settings: with aapk1_rat Prkaa1, P54645
Chain of aapk1_rat Prkaa1, P54645 (P54645 whole entry): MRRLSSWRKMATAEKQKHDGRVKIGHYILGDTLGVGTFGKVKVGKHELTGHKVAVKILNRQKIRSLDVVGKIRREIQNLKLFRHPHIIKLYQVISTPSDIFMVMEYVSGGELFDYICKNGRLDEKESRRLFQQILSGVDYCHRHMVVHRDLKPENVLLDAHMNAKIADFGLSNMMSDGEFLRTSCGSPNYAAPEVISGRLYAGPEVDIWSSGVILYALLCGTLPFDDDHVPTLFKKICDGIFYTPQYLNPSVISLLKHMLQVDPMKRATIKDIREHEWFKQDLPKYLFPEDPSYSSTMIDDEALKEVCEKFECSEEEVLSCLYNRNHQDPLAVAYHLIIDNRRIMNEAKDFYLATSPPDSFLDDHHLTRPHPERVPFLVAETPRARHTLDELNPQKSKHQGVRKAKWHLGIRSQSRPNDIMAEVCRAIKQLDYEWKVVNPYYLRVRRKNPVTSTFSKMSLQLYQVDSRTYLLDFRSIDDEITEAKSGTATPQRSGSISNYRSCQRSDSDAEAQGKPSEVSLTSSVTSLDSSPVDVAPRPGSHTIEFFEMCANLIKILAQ

Variant | effect of a mutation on the interaction
S62A | decreasing interaction

Variants of: B1
Settings: with aapk1_rat Prkaa1, P54645
Remark: another data set of the same source

Variant | effect of a mutation on the interaction
S62D | increasing interaction
